Earlier results, collected in PMC2818086.

Tested on: His64
Experiment: kinetics
Details: 25 °C; free enzyme in solution during catalysis (zinc-loaded)
For “Carbonic anhydrase II (HCA II) N62L (Homo sapiens; N62L)”, the pKa is given as 6.0.
In the case of “Carbonic anhydrase II (HCA II) N62D (Homo sapiens; N62D)”, the pKa is listed as 8.4.
In the case of “Carbonic anhydrase II (HCA II) N62V (Homo sapiens; N62V)”, the pKa is listed as 5.9.
For “Carbonic anhydrase II (HCA II) Y7F (Homo sapiens; Y7F)”, the pKa is listed as 6.0.
In the case of “Carbonic anhydrase II (HCA II) N62T (Homo sapiens; N62T)”, the pKa is listed as 7.0.
For “Carbonic anhydrase II (HCA II), wild type (Homo sapiens)”, the pKa is given as 7.2.
For “Carbonic anhydrase II (HCA II) N62A (Homo sapiens; N62A)”, the pKa is listed as 6.2.
In the case of “Carbonic anhydrase II (HCA II) N67L (Homo sapiens; N67L)”, the pKa is given as 7.5.
